{
  "source": "patent US20120134979A1",
  "about": "“METHODS AND COMPOSITIONS FOR THE TREATMENT OF SICKLE CELL DISEASE” (priority 2010, published 2012)",
  "key": {"[1]": {"system": "SCD Tg mice", "assay": "Hemolytic analysis of plasma of SCD Tg mice after chronic treatment", "format": "in vivo, mouse", "details": "chronic PEG-ADA treatment", "protocol": "Chronic PEG-ADA therapy. SCD transgenic mice, at eight weeks of age, were divided to two groups. One group was injected with 2.5 U PEG-ADA weekly for 8 weeks. This dosing protocol was designated SCD with PEG-ADA treatment regimen (SCD+PEG-ADA). Another group was injected with normal saline for 8 weeks; it was designated as SCD without PEG-ADA treatment regimen (SCD). Wild-type mice (C57Bl/6) used as control were injected with saline or PEG-ADA as with the SCD groups.\nHemolytic analysis. The hemoglobin, haptoglobin and total bilirubin in mouse plasma were quantified by ELISA kits following instructions provided by the vendor (BioAssay Systems, Hayword, Calif.)."}, "[2]": {"system": "RBCs from SCD patients", "assay": "Hypoxia-induced 2,3-DPG in erythrocytes purified from SCD patients", "format": "cell-based, human", "details": "hypoxic conditions (2% oxygen)", "protocol": "Isolation of total erythrocytes and treatment of human and mouse erythrocytes in vitro. Blood collected with heparin as an anti-coagulant was centrifuged at 240×g for 10 min at room temperature, followed by aspiration of plasma and white interface. Packed red blood cells (RBCs) were washed 3 times with culture media (F-10 Ham's with 1% penicillin/streptomycin, 10% fetal bovine serum (FBS), and re-suspended to 4% hematocrit (HCT). One ml of RBCs was added to each well of a 12-well plate. Normal RBCs purified from humans were treated with different concentrations of 5′-(N-ethyl-carboxamido) adenosine (NECA, an adenosine receptor agonist, Sigma-Aldrich, St. Louis, Mo.) ranging from 1-50 μM for different time points (from 1 to 18 hr) under normoxic conditions. Normal RBCs were treated with 10 μM NECA in the presence or absence of adenosine receptor antagonists, including theophylline, PSB36, SCH442416, MRS1754 and MRS3777 (Tocris Bioscience, St. Louis, Mo.) at 10 μM. In addition, normal RBCs were treated directly with the A2BR agonist (BAY 60-6583, Bayer HealthCare AG, Wuppertal, Germany) or the A2AR agonist (CGS21680) (Tocris). Similarly, the mouse RBCs were treated with or without NECA at 10 μM in the presence or absence of theophylline (10 μM). In addition, RBCs purified from 4 adenosine receptor deficient mice were treated with 10 μM NECA. After 18 hours, cells were collected and 2,3-DPG levels were measured as described below. RBCs were purified from SCD patients and treated with or without 10 μM NECA, 5 units/ml polyethylene glycol-adenosine deaminase (PEG-ADA) or 3 mmol/L glycolic acid (Sigma-Aldrich), 10 μM MRS1754 (A2BR antagonist) under ambient oxygen (normoxia) or different levels of hypoxic conditions (for 3 hours with shaking at 37° C. At the end of experiments, 2,3-DPG levels were measured and the percentage of sickled cells determined as described below.\n2,3-DPG analysis. 2,3-DPG concentration in RBCs was detected by a commercially available kit (Roche, Nutley, N.J., and as described in Ericson A, de Verdier C H. A modified method for the determination of 2,3-diphosphoglycerate in erythrocytes. Scandinavian journal of clinical and laboratory investigation. 1972; 29(1):84-90)."}, "[3]": {"system": "SCD Tg mice", "assay": "Lung inflammation (neutrophils, cytokines) after hypoxia/reoxygenation in SCD Tg mice", "format": "in vivo, mouse", "details": "hypoxia-reoxygenation", "text": "Hypoxia/reoxygenation of SCD Tg mice. SCD Tg mice were subjected to two-hour hypoxic condition with 8% oxygen. After hypoxia, mice were returned to normoxic conditions for four hours Wallace, et al. NKT cells mediate pulmonary inflammation and dysfunction in murine sickle cell disease through production of IFN-gamma and CXCR3 chemokines. Blood. 2009; 114(3):667-676). At the end of the experiments, mice were sacrificed and blood collected for adenosine measurement, sickling and hemolytic analysis.\nImmunohistochemistry to assess neutrophil infiltration in the lung. To quantify neutrophils, a specific neutrophil antibody, was used as described (Zhou, et al., Enhanced airway inflammation and remodeling in adenosine deaminase-deficient mice lacking the A2B adenosine receptor. J. Immunol. 2009; 182(12):8037-8046). Rehydrated slides were quenched with 3% hydrogen peroxide, Ag retrieval performed (Dako), and endogenous avidin and biotin blocked with a Biotin Blocking System (Dako). […] Quantification of distal airway neutrophils-positive cells was performed on 20 fields/mouse lung section at ×20 using software analysis (Image Pro Plus 4.0; Media Cybernetics, Bethesda, Md., USA).\nELISA for INF-γ, IL-6, IL-1β and GM-CSF measurement in the mouse lung homongenates. INF-γ, IL-6, IL-1β and GM-CSF levels in lung homogenates were determined using ELISA kits (QUANGI)."}, "[4]": {"system": "SCD Tg mice", "assay": "Plasma adenosine levels in SCD Tg mice under weekly PEG-ADA", "format": "in vivo, mouse", "details": "weekly injection 2.5 U/week for 8 weeks", "protocol": "Adenosine Analysis. […] B., et al. Effects of (R)-deoxycoformycin (pentostatin) on intrauterine nucleoside catabolism and embryo viability in the pregnant mouse. Teratology 45, 91-103, 1992) with modifications. In brief, 500 μl of 0.6 M cold perchloric acid was added to 500 μl blood on ice, mixed using a vertex mixer and subsequently subject to sonication for 10 seconds with output 6 (W-220F, Heat Systems-Ultrasonic, Inc.). The homogenate was centrifuged at 20,000 g for 10 min at […]. The supernatant (568 μl) was transferred to a new tube and neutralized with 40.9 μl 3 M KHCO3/3.6 N KOH. Phenol red (2 μl of 0.2 mg/ml) was added as indicator. The sample was acidified with 5.7 μl of 1.8 M ammonium dihydrogen phosphate (pH 5.1) and 13.2 μl phosphoric acid (30%). Finally, the sample was centrifuged at 20,000 g for 5 min and the supernatant was transferred to a new tube and stored at −20° C. Before HPLC assay, the sample was thawed on ice, then centrifuged at 20,000 g for 10 minutes. […]"}},
  "data": [
    {"molecule": "PEG-ADA: polyethylene glycol-modified adenosine deaminase, a drug used to lower adenosine concentrations in ADA-deficient humans (protein, UniProt P56658 2-363, looked up, PEGylated) Adenosine deaminase: AQTPAFNKPKVELHVHLDGAIKPETILYYGRKRGIALPADTPEELQNIIGMDKPLSLPEFLAKFDYYMPAIAGCREAVKRIAYEFVEMKAKDGVVYVEVRYSPHLLANSKVEPIPWNQAEGDLTPDEVVSLVNQGLQEGERDFGVKVRSILCCMRHQPSWSSEVVELCKKYREQTVVAIDLAGDETIEGSSLFPGHVKAYAEAVKSGVHRTVHAGEVGSANVVKEAVDTLKTERLGHGYHTLEDATLYNRLRQENMHFEVCPWSSYLTGAWKPDTEHPVVRFKNDQVNYSLNTDDPLIFKSTLDTDYQMTKNEMGFTEEEFKRLNINAAKSSFLPEDEKKELLDLLYKAYGMPSPASAEQCL", "values": [
      {"measurement": "plasma Hb", "setting": "[1]", "result": "decreased"},
      {"measurement": "plasma haptoglobin", "setting": "[1]", "result": "increased"},
      {"measurement": "total bilirubin", "setting": "[1]", "result": "decreased"},
      {"measurement": "hypoxia-mediated induction of 2,3-DPG", "setting": "[2]", "result": "reduced"},
      {"measurement": "neutrophil infiltration in the lungs", "setting": "[3]; image quantification", "result": "significantly lowered"},
      {"measurement": "proinflammatory cytokines in the lungs (INF-γ, IL-6, IL-1β and GM-CSF)", "setting": "[3]; lung homogenates", "result": "significantly decreased"},
      {"measurement": "Adenosine levels in the plasma at different time points", "setting": "[4]", "result": "lowered adenosine to a steady level within two weeks"}
    ]}
  ]
}
